Assay results: the DeepSol protein solubility set

Test: soluble on expression in E. coli; label from the status in PepcDB or PDB records

Sequence | soluble on expression in E. coli
MGSDKIHHHHHHMMIATFSLSPAGAKRLIARGLINEAVFQQAMTHGRMIIGVGTTNSYIAEELGLLSADEKPRFAAGIVSGGVPCVTAADTRFTSICLENGRIIKDISWEEFIMDFNRDDVFVKGANAFDADGNAGVLLANPRGGTVGGSFGVLAARGCKLLVPVGHEKLIPSCTAAARLMGINRLDYSLGQRCGLALLPAGFAQIYTEIDALKTLFAVEATIVAAGGVSGSEGSVMLAIDGPDEAVKDALALARTLLKEKPLSVPRQSCKDCQASGNCVFKEIPPID | not soluble
STGVPATDLQQSIMKNVQPIELYFDNELVTDCSALGVYDNSYLVPLHLFEFDFDTIVLGGRHYKKAECEKVEFELEVNGDMVSSDACLLRVPSGPKVRNIVHLFTNEIELKKMTQVTGIMNSPHQARTVFFGSFLTVRKSILTSDGTVMPNVLSYAAQTSRGYCGAAIVAGSPARIIGIHSAGTGSVAFCSLVSKDALERTLPQKQGNVSRLDDDVRVSVPRRSKLVKSLAYPIFKPDYGPAPLSQFDKRLSDGVKLDEVVFAKHTGDKEISAQDQKWLLRAAHVYAQKVFSRIGFDNQALTEKEAICGIPGLDKMEQDTAPGLPYAQQNKRRKDICDFEEGRLKGAAKFQKDRFMAGDYSDLIYQSFLKDEIRPLEKVRAGKTRLIDVPPMPHVVVGRQLLGRFVAKFHEANGFDIGSAIGCDPDVDWTRFGLELERFRYVYACDYSRFDANHAADAMRVVLNYFFSEDHGFDPGVPAFIESLIDSVHAYEEKRYNIYGGLPSGCSCTSILNTILNNVYILAAMMKAYENFEPDDIQVICYGDDCLIASDFEIDFQQLVPVFSSFGQVITTADKTDFFKLTTLSEVTFLKRAFVPDGAFYKPVMDVKTLEAILSFVRPGTQAEKLLSVAQLAGHCEPEQYERLFEPFVGMYFVPTWRDLRLQWLMKLGC | soluble
MSLNSEAKSRIACDIDFDRDGRQAGYARAPLSRNNSGWGTVEIPITVVKNGSGPTVLLTGGVHGDEYEGQIAISDLARRLRPEEVQGRVIMLPAVNMPAIQSDTRLSPVDGRDINRCFPGDPRGTFSQMLAHFLDSVILPMADISVDMHTAGHSYDSTPSTNMHYLADPALRARTLAAAEAFGAPHNVVFGGVDEGSTFTSCVERRGIVSLGTELGGWGRVNIEGVRIGKRGILNVLKHMGVIEGTPETAQRGGAAGTRHMMVREADAYVMAPRTGLFEPTHYVGEEVRTGETAGWIHFVEDVDTAPLELLYRRDGIVWFGAGPGRVTRGDAVAVVMEDYNDTWPQEGHHHHHH | soluble
MGSDKIHHHHHHMALKVLFTGADGYVGALLGPYLLEKGIEAVGLDTGFYRKGWLYPTSAPRPAVITKDIRQVTVADLEGFDAVAHLAELSNDPLGQQSPGLTHEINHGGSMHLAEMARKAGARRFVYMSSCSVYGVGQPEQILDETSPVNPQTAYAECKVKVEEDLTRRADSDFEPCFLRNATAYGASPRQRFDIVLNDLCGLAWTTNKITLQSDGSPWRPLVHALDMCQAVWRSLTAPADAIRGQAYNVGSNDQNYRVIEIARIVADSFPGCELEVGQPSADNRSYRVNFDKIQRVLPEFQCEWTAEKGARQMRQVFERIAMTPEEFRAEPYTRLKMLMRLRASKLLDDKLFWANPMVEAVA | not soluble
MSDSSPTNLPSRAFATQKLAKLIDRWTGNANQYDTPISGLRFSRWTTPTPPTSYTHNPSICLIAQGRKRVLLGEESFIYDANHFLISSVDLPIIANIIEASEEQPYLGLIMELDLTEISQLIVDSELAFTQSKEAQKGIAVGELSESLLDAFVRLAELLDEGQNIKILAPIIKREIFYRLLMSEQGTRLHQIATAGSHSHQIAKAIDWLKNNFVKPLSVGDLASYTGMSKSSFYTHFRSMTSMTPLQFQKKLRLSEARRLMLTENLDAMAATFKVGYESPSQFSREYSRLFGAPPSKDIKSLRENLG | not soluble
MNLPQNIRYRRYQDWTEEEIKSIKTNVALSPWHTTYHIEPKTGLLNDPNGFSYFNGKFNLFYQNWPFGAAHGLKSWIHTESEDLVHFKETGTVLYPDTSHDSHGAYSGSAYEIGDQLFLFYTGNVRDENWVRHPLQIGAFMDKKGNIQKFTDVLIKQPNDVTEHFRDPQIFNYKGQFYAIVGAQSLDKKGFIKLYKAVDNDIKNWQEVGNLDFGGSKSEYMIECPNLVFINEQPVLIYSPQGLSKSELDYHNIYPNTYKVCQSFDTEKPALVDASEIQNLDFGFECYATQAFNAPDGRVYAVSWIGLPDIDYPSDSYDYQGALSLVKELSLKHGKLYQYPVEAVRSLRSEKEAVTYKPETNNTYELELTFDSSSVNELLLFADNKGNGLAITVDTKMGTILIDRSKAGEQYALEFGSQRSCSIQAKETVVNIFVDKSIFEIFINKGEKVFTGRVFPNDKQTGIVIKSGKPSGNYYELKYLEHHHHHH | soluble
SLDSNESKLKQKSPAEFFAENKNIAGFDNPGKSLYTTVRELVENALDSAESIEG | soluble
MAHHHHHHMQRPTTARYRGRRESSAASRKLAKKPHSLMDELPPCPPSPYKWKQHRQHDGHHISVTAAFIRGRRNMRVGAAAISAIAASPFPVDGATKAAKSSPAFPMRALVVAGTHDSDAVEGNNDDEAIFELFFREAQLHYHISAEENMRNHLLAGEEVAFTNLMIEALQARAELLAGDEAAELVIRDAQKRAQERQAMMKEIEKTVALRLHDERMAQLLAMEFEALLPAHGAGCERILREEAADLGEVFRWHKENRPLGAGCFIEAPVEDSRLTDARRGTGAAKFLESRLALAKGSRRASCARSSRVYLAQLLQKGTSSRCSAAALGPLAVAAGEAPASLLDGTLPVMDEALFQEEGRARLQAAKDQRYLALRGLRAVSDIRQAAAAAREKVLAEEAMCWMQIARLEVDGIYAAQEATRERKKREASADAATTHRAAQKKEVKERLLRQRGRPVPEPDNSAGGDARVQPRISGKSTEEGAQPPKDQAAITEAGALEQPSPRSSSSTVPDNSPLCGALAEGASTTAEANVDAVDELAYLRFVTGEITDPDACKQLSALVSSEVDEEVEKAV | soluble
MDLFDTPLAPLQVLDDAEGGVRYWPQLLAPAVAQAAFAALRDGADWQRHQRTMYDRVVDVPRLLASYRLDAPLPPGLPLQLLLAAVQAQLPAPYNAVGLNLYRDGRDSVAMHHDKLHTLLAPHPIALLSLGTPRRMQLRAKQGATRAITLELAPGSLLAMSHASQLTHEHGIPKTTRALGERISVVFRVRPPARMAAGQHGPHWEALTQTDLEHHHHHH | soluble
TEQATTTDELAFTRPYGEQEKQILTAEAVEFLTELVTHFTPQRNKLLAARIQQQQDIDNGTLPDFISETASIRDADWKIRGIPADLEDRRVEITGPVERKMVINALNANVKVFMADFEDSLAPDWNKVIDGQINLRDAVNGTISYTNEAGKIYQLKPNPAVLICRVRGLHLPEKHVTWRGEAIPGSLFDFALYFFHNYQALLAKGSGPYFYLPKTQSWQEAAWWSEVFSYAEDRFNLPRGTIKATLLIETLPAVFQMDEILHALRDHIVGLNCGRWDYIFSYIKTLKNYPDRVLPDRQAVTMDKPFLNAYSRLLIKTCHKRGAFAMGGMAAFIPSKDEEHNNQVLNKVKADKSLEANNGHDGTWIAHPGLADTAMAVFNDILGSRKNQLEVMREQDAPITADQLLAPCDGERTEEGMRANIRVAVQYIEAWISGNGCVPIYGLMEDAATAEISRTSIWQWIHHQKTLSNGKPVTKALFRQMLGEEMKVIASELGEERFSQGRFDDAARLMEQITTSDELIDFLTLPGYRLLA | soluble
MPTERPTTTAPVSLRERRRTAAAREILDAAEQHIGEHGPAALSLRAVARGLGMTVQALYHYFPNRDALVTALITKAYGELSDVLQAAADSVRADPATPRPVAVAEAYRGWGVARPEHFQLLYGTPLRYYAAPAEGPTTQAVRRMGAIFQRELFAGFTPAQLAAAEVPALSPSYREHLEQLPMHAQGDLPPAAASLFLSAWGHVHGLVVLEVFGHTAFLGDHQAEVFRTSVRMMLEDIHRRIPAA | not soluble
PNARSQPSKTLFVKGLSEDTTEETLKESFDGSVRARIVTDRETGSSKGFGFVDFNSEEDAKAAKEAMEDGEIDGNKVTLDWAKPKGEGG | soluble
MSFQQPQASPISPGDSGWLIKMRKNRYLDHTSKVNEPKKYRSMDQLPTGKVGAPDNEKSEGTDPLHWQLRKDFHLAKYSERRASYHVESSSYIHSSQQIQHPPQQHHPPPPSPPPVAETIQHQPHPSQQQPSTTTISSRQLYKSQLLYPPGSTENIASEHKPAIRPPEKSVYENNPIAPSELNVQVKRAPPQGPPPPPPPQAPADIDYPERLMSPPPTHQPRSILKGYSSQQYYSQTNLTESHHHQSSQETSLNPQQMHPRPSDRRTPTHFEDLSEDEKTRIMHENLQRHRNMRSGPNGPRPTTTSFNGPFFRLEQVNPGQNQPQQPQYQQHPRSQSVDPSGDMNGGPRPIHQNFSASEIELHHYSRNAEPSVVVWPPVSEKERERPSSVLAKNFNDPERIDEYQRQKRLEYEAIQRTNEKQAVSMAKQVNAMMQQQKLYERSHGMTSPVPIMESISPQPQVSHHHHQPQQHQQHQPQQQYYPSPPPPPQPYRDPEPVFNPVQVYETRPISALSDQIDQPPSQQAPTSWKRTYIVERPRDVAKNEIITSDQLLEKEAYDVDLLKRRETFVEKPEEAPRINRLGRRWQPPPERPYVWPTLRRAMSVEPSSMPVDFAPGVPHNYDDNEEYKWEPVVNDPGYKKEDKNFTPVNSPPASPRRGHGVGPLDEPARRQAKYVIQPSPDGSHRPKAVFRKERHAPSGGFYPHAPNAIKVVKKRAQSVQGLLSPTDNVEVIHQRNYHRLDLEQNGHHGQKLRRSQHGGSEMDLRRSTQEMPDWEKIYELPPHSSQIVQKDMPRHVDVQRRLSKFEGSIQNLRAATSTQHLDSMQQLHFPMPDYEPPQPPQQRRRTESSGYRGGPPPPPPMPQQQPREMSRRNSVASTRIDSPSLMIPHHRQSRSDSRGPPQMSRAASSIPLSPQPTPQHHHHHHSQRPTTPGATRARNYIARATAPSPTPYSYDRARAYVPPALPPGYRLADPIPDQRAMSPSPGHTRKLIRNVSESAQRLHPSGSTPQTSRAPSRHSHRQSPNPRFL | not soluble
MGLEVAADSVGSALAAQDGGAIRVELCGGLDGGGLTPSFGTLAVVRERLQIPLYVLIRPRVGDFVFDAAEVEVMRRDVEQCVRLGCDGVVLGALDPQGQVDLPAMRALIEAAGTLGVTFHRAIDVSADPARVLEDAITLGCERVLTSGARASALEGVETIAALVRQAGERISIMPGAGVSAANVQALRAGTGAREFHASARGPVAAQVHAPHPYITDLGGDYQRTDVARVRSIVQLLQTALEHHHHHH | not soluble
MIIKVIPVGPIAVNCSVVADEKSGEAIIIDPGAEAEKILEAVKDFKVVGIVATHGHIDHVGQVGKLKELFDVPFYMNPLDKFLINDEIWSGFASYIGAVPCPEPDVEISEGDVIRVGDVEFKVLHTPGHTPGLCCLYEEKRRVLIAGDLLFKGSVGRWDLPGGNLVELKKSVKRVLTELPQDTLVICGHYDETTIGQERAFNPFAGELLNG | soluble
MHILVTGAAGFIGSHTVLELLNSGYTVLCIDNFANAISDEHGNAISLKRVAQLTGKDVPFQNVDVCDEAALEKVFSENKFDGIIHLAALKAVGESVAKPLQYYSNNLVASLNLIQMCLKYNVKNFVFSSSATVYGPPSELPITEKSQTGQGITNPYGQTKYMMEQILIDVGKANPEWNVVLLRYFNPVGAHKSGLIGEDPKGVPNNLMPYVSQVAIGKLPVLTIYGDQFDTVDGTGVRDYIHVVDLAKGHVKAFDRIKTVGNIGTEIYNLGTGVGYSVRQMVDALKKVSGRDIPVKIGVPRPGDVASVYCDPSLAQEKLGWRAETGLEEMCADLWNWQTKNPQGFSA | not soluble
